B1: PDS5B (parent)
chain: ITYPPGVKEISDKISKEEMVRRLK
B2: ACSBG2 (parent)
chain: TPMTIPEFFRESVNRFGTYPALAS

Variants of: B1
Assay: protein stability index of a GFP-peptide fusion (GPS, HEK-293T) (PSI 1-6); higher = more stable
Conditions: c terminus: a fixed tail appended
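Further: lentivirally expressed fusions sorted by FACS into six bins by GFP to DsRed ratio, PSI derived from sequencing read proportions per bin multiplied by bin number.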

Variant	protein stability index
R22T	4.41
R22S	4.24
R22G	4.72
R22C	2.9
R22N	4.54
R22M	2.89
R22W	2.33
R22Y	2.95
R22K	3.86
R22A	3.76
R22L	2.28
R22I	2.71
R22D	4.92
R22F	3.85
R22H	3.88
V20W	3.38
V20P	4.26
V20Q	4.03
V20Y	4.2
V20R	4.61
V20S	4.83
R21H	3.77
R21S	4.45
R21L	4.15
R21M	3.97

Variant	protein stability index
R21E	3.69
R21F	3.85
R21W	4.52
R21I	3.41
R21V	4.11
R21P	4.52
R21K	3.34
R21G	4.75
R21N	3.44
R21D	4.46
R21Q	4.28
R21C	3.96
R21T	4.63
R21A	2.21
K24Y	2.67
K24V	3.61
K24A	3.58
K24E	4.38
K24F	2.48
K24L	2.81
K24C	3.13
K24D	4.78
K24R	4.2
K24S	3.23
K24W	2.72

Variant	protein stability index
K24I	3.04
K24M	3.11
K24N	3.77
K24T	4.13
K24G	3.77
K24H	3.85
L23I	4.51
L23D	5.12
L23G	4.84
L23Q	4.75
L23A	4.61
L23N	4.49
L23R	4.59
L23V	4.29
L23S	5.11
L23Y	3.7
L23E	4.84
L23W	3.1
L23T	4.79
L23H	4.08
L23K	4.85
L23P	4.85
L23M	3.78

Variants of: B2
Assay: as above
Conditions: c terminus: a fixed tail appended

Variant	protein stability index
E11R	1.99
E11H	1.84
E11D	2.58
E11N	1.82
E11Y	1.68
E11G	1.89
E11V	1.99
E11F	2.47
E11A	1.95
E11L	1.48
E11C	1.95
E11I	1.69
E11Q	1.5
E11P	1.72
E11K	2.09
E11S	2.15
E11T	2.17
E11M	2.76
E11W	2.08
I5T	2.67
I5C	2.58
I5E	2.84
I5G	2.84
I5A	2.44

Variant	protein stability index
I5W	2.18
I5D	2.7
I5M	2.37
I5Y	2.05
I5V	2.03
I5R	2.97
I5L	1.97
I5K	2.19
I5F	2.23
I5S	2.51
I5P	2.5
I5Q	3.5
I5H	2.39
I5N	2.39
N14K	2.54
N14I	1.83
N14E	2.81
N14Q	2.24
N14P	2.66
N14L	1.62
N14M	2.39
N14G	2.18
N14F	1.66
N14H	2.05

Variant	protein stability index
N14R	2.01
N14C	1.83
N14A	2.51
N14D	2.65
T1L	2.08
T1I	1.93
T1V	1.93
T1S	2.13
T1W	2
T1M	1.85
T1F	2.24
T1Y	2.27
T1Q	2.44
T1A	2.28
T1N	2.12
T1P	2.43
T1E	2.12
T1R	2.34
T1C	1.73
T1D	2.94
T1K	3.04
T1G	2.13
T1H	2.07
V13D	2.79

Variant	protein stability index
V13H	2.59
V13Q	2.28
V13K	2.31
V13F	1.97
V13R	2.37
V13C	3.09
V13W	1.76
V13E	2.78
V13M	2.41
V13I	2.56
V13P	2.43
V13G	2.2
V13L	2.09
V13A	2.42
V13N	2.84
V13S	2.44
V13T	2.98
V13Y	2.64
P6Q	1.93
P6Y	1.99
P6L	3.27
P6K	2.15
P6E	2.15
P6I	3

Variant	protein stability index
P6V	1.41
P6G	2.08
P6F	4.36
P6W	2.67
P6A	1.8
P6S	1.94
P6D	1.76
P6C	1.89
P6T	1.88
P6N	2.05
P6H	2.38
P6R	2.08
P6M	3.03
E7M	2.63
E7F	2.93
E7S	2
E7Q	2.02
E7N	2.63
E7W	1.74
E7C	2.19
E7Y	1.52
E7A	2.26
E7V	1.9
E7H	2.94

Variant	protein stability index
E7T	2.19
E7I	2.65
E7K	2.25
E7G	2.14
E7R	2.19
E7L	2.15
E7D	2.13
E7P	2.24
P2K	2.01
P2E	2.89
P2A	2
P2D	2.65
P2H	2.29
P2S	2.41
P2M	2.55
P2Q	2.4
P2F	1.83
P2N	2.2
P2T	2.35
P2W	1.4
P2C	1.72
P2G	2.12
P2V	1.98
P2I	1.44

Variant	protein stability index
P2Y	2.88
P2R	2.12
P2L	1.93
S12K	2.17
S12L	2.01
S12G	2.48
S12E	2.69
S12R	2.25
S12M	2.64
S12N	2.25
S12A	1.97
S12Q	2.65
S12F	1.66
S12H	2.27
S12P	2.47
S12W	1.39
S12I	1.76
S12C	1.53
S12T	2.02
S12V	2.19
S12Y	1.86
S12D	2.96
M3L	2.09
M3R	2.61

Variant	protein stability index
M3Q	3.21
M3H	2.37
M3V	2.11
M3P	2.02
M3D	2.52
M3Y	2.49
M3T	2.55
M3K	2.46
M3G	2.54
M3W	1.69
M3F	2.14
M3C	2.34
M3A	2.34
M3I	2.5
M3E	2.44
M3N	2.62
M3S	2.8
F8I	2.42
F8S	2.9
F8L	2.66
F8E	2.35
F8H	2.45
F8Y	2.4
F8Q	2.65

Variant	protein stability index
F8D	3.19
F8V	2.14
F8W	2.09
F8K	3.02
F8G	3.02
F8C	2.7
F8M	2.35
F8A	2.99
F8R	2.39
F8P	2.72
F8T	2.8
F8N	3.19
R10F	2.04
R10S	2.45
R10C	1.5
R10D	2.75
R10I	1.51
R10W	1.97
R10A	2.61
R10Q	2.62
R10M	1.63
R10G	2.37
R10N	3.3
R10Y	1.86

Variant	protein stability index
R10T	2.37
R10V	1.54
R10E	2.43
R10P	3.03
R10K	2.55
R10L	1.45
R10H	2.15
F9L	1.76
F9M	2.45
F9Q	2.37
F9G	3.05
F9D	3.36
F9N	3.16
F9V	2.36
F9I	2.27
F9K	2.67
F9E	3.41
F9R	2.88
F9W	1.92
F9T	3.4
F9S	2.71
F9P	2.79
F9C	2.17
F9H	2.98

Variant	protein stability index
F9Y	2.71
F9A	2.42
T4K	2.31
T4I	1.88
T4L	1.86
T4Y	2.62
T4P	2.73
T4E	2.52
T4V	3.26
T4F	1.65
T4C	2.36
T4W	2.19
T4S	1.99
T4A	2.62
T4H	2.38
T4M	2.17
T4D	2.23
T4R	2.32
T4N	2.4
T4G	2.34
T4Q	2.13

— the supplement of paper PMC10567573
